The supplement of paper PMC9732359
± gives the uncertainty stated by the source.

Assay: protein stability index of a GFP-peptide fusion (yeast GPS) (PSI 1-4); higher = more stable; sorted into four equal gates, so the index is relative within each strain
In short: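 Yeast carrying a pooled library were grown to mid-log phase in leucine-free medium. Each library plasmid expresses Cherry and has a tiled 17-residue yeast protein peptide fused downstream of GFP. Cells were sorted into four equal gates by GFP/Cherry ratio, and plasmids from each gate were PCR-amplified, Illumina-sequenced and assigned to strains by barcode. Summing, across gates, the read frequency times the gate number gave each peptide's protein stability index.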

Sequence	protein stability index (doa10∆)	protein stability index (pdr5∆)	protein stability index (san1∆)	protein stability index (ubr1∆)
LEAPVKSIENPTQTKGN [YLR335W/NUP2]	3.04 ± 0.077	3.17 ± 0.055	3.15 ± 0.051	2.95 ± 0.058
LREVVELPLLSPERFAT [RPT1]	2.13 ± 0.084	2.54 ± 0.07	2.47 ± 0.1	2.33 ± 0.11
LQNSERDVELSSDELKV [SMC4]	2.84 ± 0.11	3.12 ± 0.088	2.73 ± 0.066	3.04 ± 0.12
PSLRDRRERRLIFGTIA [RPT3]	1.41 ± 0.08	2.04 ± 0.099	1.63 ± 0.079	1.85 ± 0.07
ATSQYLKQDLKKISSFK [YGL172W/NUP49]	2.9 ± 0.064	2.56 ± 0.064	3.04 ± 0.051	3.06 ± 0.042
FRENMSKEETVDFIKHS [PRE3]	3.11 ± 0.086	3.19 ± 0.086	3.16 ± 0.066	3.24 ± 0.085
LGVIHKGNLLEGKKVMA [RPN2]	1.37 ± 0.07	1.33 ± 0.048	1.17 ± 0.11	1.22 ± 0.057
IREIDVAGGKKALAIFV [RPS7A]	2.29 ± 0.089	1.75 ± 0.11	1.49 ± 0.17	1.77 ± 0.066
VMDTIQEQITLYDHWDK [SSN8]	3.14 ± 0.12	2.96 ± 0.09	2.63 ± 0.095	2.82 ± 0.068
QLESYEYMVQYIDEMYN [RRI1]	2.74 ± 0.052	2.89 ± 0.075	3.27 ± 0.14	2.42 ± 0.071
TQHEEEEEQDTGESEES [IRR1]		3.29 ± 0.1	3.26 ± 0.092	3.39 ± 0.15
NADLDVKDELMFSPLVD [RPO21]	3.17 ± 0.047	3.08 ± 0.04	3.15 ± 0.041	3.31 ± 0.034
VLKSSVYEYVIASTLGP [RPC82]	1.43 ± 0.085	1.53 ± 0.07	1.23 ± 0.11	1.43 ± 0.055
RRGAHGSELSSKIRKIH [SIR3]	2.32 ± 0.12	2.02 ± 0.087	2.57 ± 0.15	2.54 ± 0.063
LCQKSPVMADLNGGLQF [FAS2]	2.79 ± 0.11	2.65 ± 0.17	2.94 ± 0.14	2.53 ± 0.2
VLTHESLHRQQQQQQQQ [DLS1]	3 ± 0.082	2.9 ± 0.079	2.62 ± 0.052	2.85 ± 0.079
SKHNERNKSAANNDINS [YDL088C/ASM4]		3.21 ± 0.12		2.85 ± 0.12
TFIYFAYFLIIVPVIST [COB]	1.68 ± 0.05	1.3 ± 0.046	1.16 ± 0.087	1.1 ± 0.027
DYVASLNELYQTQQDLP [NSL1]	3 ± 0.056	3.19 ± 0.052	3.12 ± 0.058	3.06 ± 0.039
LNDRQEEISRLQRDLIQ [YIL149C/MLP2]	2.72 ± 0.11	3.25 ± 0.25	3.07 ± 0.26	3.05 ± 0.12
VLKTLIEKFEQVPDSLD [RPN6]	3.16 ± 0.093	3.21 ± 0.081	3.37 ± 0.06	3.21 ± 0.086
GTNNISQHGQGNNPSWV [YDL088C/ASM4]	3.01 ± 0.078	3.39 ± 0.059	3.3 ± 0.058	3.12 ± 0.054
HESYCLPMDTNLFKINS [YMR129W/POM152]	1.54 ± 0.055	1.72 ± 0.039	1.74 ± 0.13	1.37 ± 0.067
RKHHKKGITEEVAKKRS [RPL24A]	3.36 ± 0.12	3.45 ± 0.2	3.19 ± 0.17	3.02 ± 0.092
RSVDRAGRKFKSRRCDD [POP4]	3.1 ± 0.079	3.16 ± 0.078	3.33 ± 0.071	3.18 ± 0.075

Sequence	protein stability index (doa10∆)	protein stability index (pdr5∆)	protein stability index (san1∆)	protein stability index (ubr1∆)
SEPIDLIIIEKKQKLIE [ITC1]			2.87 ± 0.18	2.69 ± 0.13
DRKIEFPPPSVAARAEI [RPT6]	2.02 ± 0.094	2.36 ± 0.11	1.83 ± 0.096	1.39 ± 0.052
GSAINHHRIFDSSAHFK [YMR129W/POM152]	2.57 ± 0.049	2.46 ± 0.062	2.64 ± 0.075	2.71 ± 0.039
VFKTHSYRGVDLEKLLE [RPS15]	3.2 ± 0.083	3.18 ± 0.062	3.14 ± 0.045	2.29 ± 0.04
LVKDRKFLREVFVDGEA [RPO21]	3.1 ± 0.14	3.46 ± 0.27	2.62 ± 0.1	2.85 ± 0.21
DTETFDTVNSALENDVA [YML103C/NUP188]		3.63 ± 0.23	3.16 ± 0.2	2.69 ± 0.17
SQIFDQLKDMQTIEMIT [SRB8]	2.78 ± 0.058	3.11 ± 0.049	2.72 ± 0.049	2.85 ± 0.043
ELQIFKTANSSSDAFEK [YIL149C/MLP2]	2.44 ± 0.049	2.73 ± 0.049	2.61 ± 0.061	2.75 ± 0.049
IQIDEETENSESIASSN [MCD1]	2.4 ± 0.071	2.73 ± 0.072	2.5 ± 0.082	2.76 ± 0.051
ILRMGAFRTIESKSDDN [RRI1]	2.88 ± 0.094	2.8 ± 0.11	2.92 ± 0.066	2.56 ± 0.065
MSTDSIVKASNWRLVEV [RPL14A]	2.82 ± 0.1	1.44 ± 0.13		1.71 ± 0.087
NANTVFAGSNNQPHQSQ [YOR098C/NUP1]	2.85 ± 0.1	3.15 ± 0.08	2.89 ± 0.06	3.07 ± 0.046
RGFKVGLVCADTFRAGA [SRP54]	2.19 ± 0.22	2.25 ± 0.081		2.23 ± 0.11
DQYLWYEADQRKLFPNW [PRP8]				3.13 ± 0.19
SSEYETINISLSFSWAI [NUT1]	1.51 ± 0.1	1.64 ± 0.16	2.21 ± 0.13	2.4 ± 0.13
VGPHFKQANNFLWPFKL [RPL7A]	2.71 ± 0.069	3.05 ± 0.098	2.97 ± 0.065	2.93 ± 0.064
NKQIEILTDLVNYRHFK [ITC1]	2.93 ± 0.042	2.99 ± 0.036	3.03 ± 0.043	2.75 ± 0.036
GSVSEETELFEPGVLNT [ECM29]	3.28 ± 0.16	3 ± 0.087	3.07 ± 0.096	2.67 ± 0.083
SYNNTGISDDENDEEDI [RRP4]	2.85 ± 0.11	3.27 ± 0.12	2.84 ± 0.086	2.96 ± 0.099
PFSLTYVRTEETDGKHG [YMR129W/POM152]	3.13 ± 0.14	3.28 ± 0.096	3 ± 0.074	3.19 ± 0.069
LLKDDTYQLCVRLRSNV [RPN3]	1.47 ± 0.076	1.85 ± 0.29		1.25 ± 0.2
IQEQRVKDKQSKVSDDS [RPN8]	1.97 ± 0.11	2.79 ± 0.13		2.92 ± 0.13
LILRDFLNNGEVDSASD [RPN3]	3.07 ± 0.19	2.89 ± 0.17	2.63 ± 0.23	3.2 ± 0.29
SKPVLIVGQKNLNRAFN [DIS3]	3.08 ± 0.11	2.8 ± 0.1	2.77 ± 0.055	2.8 ± 0.088
NAQQTFHIDHTKPSDLT [RPO21]	2.85 ± 0.044	2.6 ± 0.042	2.69 ± 0.048	2.82 ± 0.041
